The target in one assay is HLA-B*15:01. The assay can be described thus: IEDB peptide-MHC binding, purified MHC/direct/fluorescence; filed as Kd, often an IC50 or EC50 that approximates it; ≥ and ≤ were set here for values at or beyond the usual limits of such assays. Particulars: source organism: Haemophilus influenzae.
In another assay the target is HLA-A*69:01. Described as above.
The target of assay [1] is HLA-A*02:01. Described as above.
For the next assay, the target named is HLA-B*07:02. The assay is described as above. As to conditions: source organism: Haemophilus influenzae.
In the next assay the target is HLA-A*23:01. The assay can be described thus: IEDB peptide-MHC binding, purified MHC/competitive/radioactivity; filed as Kd, often an IC50 or EC50 that approximates it; ≥ and ≤ were set here for values at or beyond the usual limits of such assays.
A further assay deals with HLA-A*29:02. Described as above.
The next assay addresses HLA-A*30:02. The description is as above.
For another assay, the target named is HLA-A*24:02. The description is as above.
The next assay deals with HLA-A*26:01. Described as above.
The target of a further assay is HLA-A*01:01. The description is as above.
The target in assay [2] is HLA-A*02:01. Nature of the assay: IEDB peptide-MHC binding, purified MHC/competitive/fluorescence; ≥ and ≤ were set here for values at or beyond the usual limits of such assays.
Setting [3] is: source organism: Haemophilus influenzae.
[4] abbreviates: source organism: SARS coronavirus Tor2.
[5] abbreviates: source organism: Rickettsia conorii.
The mark [6] stands for this setting: source organism: Camelpox virus M-96.
[7] abbreviates: source organism: Influenza A virus (A/Wilson-Smith/1933(H1N1)).
[8] abbreviates: source organism: Zaire ebolavirus.
Setting [9] is: source organism: Lassa virus Josiah.

As a reminder, the Kd is a measure of binding affinity in units of concentration. As for AILGVLATL, the Kd was 18.5 µM with HLA-B*15:01, 0.238 µM with HLA-A*69:01 (setting [3]), 0.316 µM in the assay with HLA-A*02:01 [1] (setting [3]) and 12.7 µM in the assay with HLA-B*07:02.
Regarding AMVRMYIFF, the Kd in the assay with HLA-A*23:01 (setting [4]) was 0.214 µM; in the assay with HLA-A*29:02 (setting [4]), 0.452 µM; with HLA-A*30:02 (setting [4]), no less than 71.1 µM; with HLA-A*24:02 (setting [4]), 4.46 µM; in the assay with HLA-A*26:01 (setting [4]), 7.44 µM; with HLA-A*01:01 (setting [4]), 18.7 µM.
On to ASFYYIWKSY, for which the Kd was no less than 32.1 µM with HLA-A*23:01 (setting [4]); 0.0714 µM in the assay with HLA-A*29:02 (setting [4]); 0.000481 µM in the assay with HLA-A*30:02 (setting [4]); no less than 28.6 µM in the assay with HLA-A*24:02 (setting [4]); 2.1 µM in the assay with HLA-A*26:01 (setting [4]); 3.11 µM with HLA-A*01:01 (setting [4]).
For CTFLLNKEMY, the Kd with HLA-A*23:01 (setting [4]) is no less than 70 µM; with HLA-A*29:02 (setting [4]), 0.789 µM; with HLA-A*30:02 (setting [4]), 0.412 µM; with HLA-A*24:02 (setting [4]), no less than 70.3 µM; in the assay with HLA-A*26:01 (setting [4]), 9.38 µM; in the assay with HLA-A*01:01 (setting [4]) it was 0.793 µM.
For DLAAGVDVV, the Kd in the assay with HLA-A*69:01 (setting [5]) stood at 1.46 µM; with HLA-A*02:01 [1] (setting [5]) it was 3.24 µM.
As for DLYDYITRI, the figures for the Kd with HLA-A*69:01 (setting [6]) and with HLA-A*02:01 [1] (setting [6]) were 0.0353 µM and 0.101 µM, respectively.
For the sequence DQHGRMNYYW, the Kd was 1.11 µM in the assay with HLA-A*23:01 (setting [7]); 2.17 µM in the assay with HLA-A*29:02 (setting [7]); no less than 69.8 µM in the assay with HLA-A*30:02 (setting [7]); 1.47 µM with HLA-A*24:02 (setting [7]); 0.661 µM with HLA-A*26:01 (setting [7]); no less than 70.4 µM in the assay with HLA-A*01:01 (setting [7]).
For EFSSNVANY, the Kd with HLA-A*23:01 (setting [4]) was no less than 77.8 µM; with HLA-A*29:02 (setting [4]), 0.703 µM; in the assay with HLA-A*30:02 (setting [4]), 0.828 µM; in the assay with HLA-A*24:02 (setting [4]), no less than 32.2 µM; in the assay with HLA-A*26:01 (setting [4]), 2.9 µM; in the assay with HLA-A*01:01 (setting [4]), 11.2 µM.
A word on the IC50: it is the concentration needed to halve the response being measured. Lower therefore signals inhibition by little substance. The sequence ELDHLGLDD returned an IC50 with HLA-A*02:01 [2] (setting [8]) of no less than 513 µM.
For the sequence ETPHLMGWDY, the Kd with HLA-A*23:01 (setting [4]) was no less than 70 µM; in the assay with HLA-A*29:02 (setting [4]) it was 0.0927 µM; with HLA-A*30:02 (setting [4]), 0.696 µM; with HLA-A*24:02 (setting [4]), no less than 70.3 µM; with HLA-A*26:01 (setting [4]), 0.00491 µM; with HLA-A*01:01 (setting [4]), 0.301 µM.
On to EYPIIGDEL, for which the Kd with HLA-A*23:01 (setting [4]) was 16.2 µM; with HLA-A*29:02 (setting [4]), 0.176 µM; with HLA-A*30:02 (setting [4]), 1.33 µM; in the assay with HLA-A*24:02 (setting [4]) it was 14.1 µM; with HLA-A*26:01 (setting [4]) it was no less than 77.9 µM; with HLA-A*01:01 (setting [4]) it was no less than 78.1 µM.
In turn, FLLRRWGGT showed an IC50 with HLA-A*02:01 [2] (source organism: Sudan ebolavirus) of 2.02 µM.
Take GTFLCANEY: the Kd in the assay with HLA-A*23:01 (setting [4]) is no less than 36.4 µM; in the assay with HLA-A*29:02 (setting [4]), 0.00383 µM; in the assay with HLA-A*30:02 (setting [4]), 0.000406 µM; with HLA-A*24:02 (setting [4]), 11.4 µM; with HLA-A*26:01 (setting [4]) it was 0.262 µM; in the assay with HLA-A*01:01 (setting [4]), 0.0974 µM.
In the case of HTLSIHDGY, the Kd with HLA-A*23:01 (setting [4]) was no less than 77.8 µM; with HLA-A*29:02 (setting [4]), 0.00179 µM; in the assay with HLA-A*30:02 (setting [4]) it was 0.000411 µM; with HLA-A*24:02 (setting [4]), no less than 77.6 µM; with HLA-A*26:01 (setting [4]), 0.016 µM; in the assay with HLA-A*01:01 (setting [4]) it was 1.5 µM.
In the case of IFWRNTNPI, the Kd is 9.15 µM in the assay with HLA-A*23:01 (setting [4]); no less than 35.2 µM with HLA-A*29:02 (setting [4]); no less than 78.9 µM with HLA-A*30:02 (setting [4]); no less than 31.5 µM with HLA-A*24:02 (setting [4]); no less than 77.9 µM with HLA-A*26:01 (setting [4]); no less than 78.1 µM with HLA-A*01:01 (setting [4]).
Regarding IMLVYCFLGY, the Kd with HLA-A*23:01 (setting [4]) was no less than 70 µM; in the assay with HLA-A*29:02 (setting [4]), 0.00305 µM; in the assay with HLA-A*30:02 (setting [4]), 0.211 µM; in the assay with HLA-A*24:02 (setting [4]) it was no less than 70.3 µM; in the assay with HLA-A*26:01 (setting [4]) it was no less than 42.7 µM; with HLA-A*01:01 (setting [4]), no less than 31.5 µM.
With KCWLVSNGSY, the Kd in the assay with HLA-A*23:01 (setting [9]) is no less than 70 µM; with HLA-A*29:02 (setting [9]) it was 1.53 µM; in the assay with HLA-A*30:02 (setting [9]), 0.0114 µM; in the assay with HLA-A*24:02 (setting [9]), no less than 70.3 µM; with HLA-A*26:01 (setting [9]) it was no less than 69.7 µM; with HLA-A*01:01 (setting [9]), 11.5 µM.
In turn, KLDISEATQ returned an IC50 in the assay with HLA-A*02:01 [2] (setting [8]) of no less than 96.7 µM.
For the sequence KSTDFLDPA, the IC50 with HLA-A*02:01 [2] (setting [8]) is 5.05 µM.
Still for that read-out and setting: in the case of LAKLTEAIT it was 68.4 µM.
